Assay results as given in patent US20140161725A1 (H LEE MOFFITT CANCER CENTER AND RESEARCH INSTITUTE, published 2014).
Where no end group is shown, it is not given here. The star is where a group is joined. Dhc(Pam)2 = S-[2,3-bis(palmitoyl)oxy-(R)-propyl]-cysteine, CCCCCCCCCCCCCCCC(=O)OC[C@H](CSC[C@H](N)C(=O)*)OC(=O)CCCCCCCCCCCCCCC; PEGO = not defined here

Tests used:
[1] = molecular target: T1, human Toll-like receptor 2 (TLR2) (human, UniProt O60603 21-784); assay: Eu TRF competition binding; competitor compound 11
[2] = molecular target: T1, human Toll-like receptor 2 (TLR2); assay: time-resolved fluorescence competitive binding assay
[3] = molecular target: T1, human Toll-like receptor 2 (TLR2); assay: Eu TRF competition binding on SU.86.86 cells; competitor 90 nM compound 11
[4] = molecular target: T1, human Toll-like receptor 2 (TLR2); assay: Eu TRF competition binding on HEK-293/hTLR2 cells; competitor 90 nM compound 11
[5] = molecular target: T1, human Toll-like receptor 2 (TLR2); assay: in vivo fluorescence imaging of TLR2 expressing SU.86.86 xenografts 24 h post-injection; competitor 20-fold excess Pam2CSK4
[6] = molecular target: T1, human Toll-like receptor 2 (TLR2); assay: Eu TRF saturation binding on Capan-I cells
[7] = molecular target: T1, human Toll-like receptor 2 (TLR2); assay: Eu TRF saturation binding on SU.86.86 cells
[8] = molecular target: T1, human Toll-like receptor 2 (TLR2); assay: Eu TRF saturation binding on HEK-293/hTLR2 cells
[9] = molecular target: T1, human Toll-like receptor 2 (TLR2); assay: Eu TRF saturation binding on TLR2 expressing cells
[10] = molecular target: T1, human Toll-like receptor 2 (TLR2); assay: time-resolved fluorescence saturation binding assay
[11] = molecular target: T1, human Toll-like receptor 2 (TLR2); assay: Eu TRF saturation binding on Capan-I cells; non-specific binding with 1 µM Pam2CSK4
[12] = molecular target: T1, human Toll-like receptor 2 (TLR2); assay: Eu TRF saturation binding on SU.86.86 cells; non-specific binding with 1 µM Pam2CSK4
[13] = molecular target: T1, human Toll-like receptor 2 (TLR2); assay: Eu TRF saturation binding on HEK-293/hTLR2 cells; non-specific binding with 1 µM Pam2CSK4
[14] = molecular target: human carbonic anhydrase 9 (CAIX) (human) (UniProt Q16790); assay: in vivo fluorescence imaging of CAIX positive MDA-mb-231 tumour 24 h after injection; competitor unlabeled CAIX mAb
[15] = molecular target: T1, human Toll-like receptor 2 (TLR2); assay: cell-based or functional assay
[16] = molecular target: T1, human Toll-like receptor 2 (TLR2); assay: in cyto competition binding assay

T1 sequence (O60603 21-784): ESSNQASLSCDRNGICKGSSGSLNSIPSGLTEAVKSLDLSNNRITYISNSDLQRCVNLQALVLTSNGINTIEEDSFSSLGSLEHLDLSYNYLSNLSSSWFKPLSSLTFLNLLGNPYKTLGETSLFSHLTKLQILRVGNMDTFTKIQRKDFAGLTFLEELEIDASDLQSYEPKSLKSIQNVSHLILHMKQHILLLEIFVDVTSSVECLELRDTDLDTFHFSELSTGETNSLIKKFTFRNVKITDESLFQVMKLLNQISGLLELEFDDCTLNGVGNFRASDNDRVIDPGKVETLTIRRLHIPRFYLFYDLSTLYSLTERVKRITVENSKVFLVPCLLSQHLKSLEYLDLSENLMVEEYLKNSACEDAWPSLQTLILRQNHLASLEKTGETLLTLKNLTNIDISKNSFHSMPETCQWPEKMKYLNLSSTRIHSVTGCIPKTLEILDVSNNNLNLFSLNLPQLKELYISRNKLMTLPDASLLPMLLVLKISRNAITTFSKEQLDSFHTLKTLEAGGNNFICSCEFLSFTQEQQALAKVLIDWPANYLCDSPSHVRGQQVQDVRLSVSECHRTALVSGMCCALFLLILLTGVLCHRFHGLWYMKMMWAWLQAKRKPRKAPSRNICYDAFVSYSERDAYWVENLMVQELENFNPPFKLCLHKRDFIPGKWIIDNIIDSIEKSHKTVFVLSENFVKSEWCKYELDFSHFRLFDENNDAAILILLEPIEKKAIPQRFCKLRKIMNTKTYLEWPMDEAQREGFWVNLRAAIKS

For “Compound 13: IRDye800CW-Mpr-PEGO-Cys(S-[2,3-bis(palmitoyl)oxy-(R)-propyl])-Gly-DSer-PEGO-NH2 (peptide)”, the Ki [1] was under 100 nM, the Ki [2] was 10 nM and the Ki [3] was 67 nM. For the same molecule, the Ki [4] was 11 nM and the unblocked/blocked tumor fluorescence (fold) [5] was 1.94 fold.

“Compound 12: Mpr-PEGO-Cys(S-[2,3-bis(palmitoyl)oxy-(R)-propyl])-Gly-DSer-PEGO-NH2 (peptide)” was tested, and the Ki [1] was under 100 nM and the Ki [3] was 25 nM.

“Compound 11: Eu-DTPA-PEGO-Cys(S-[2,3-bis(palmitoyl)oxy-(R)-propyl])-Gly-DSer-PEGO-NH2 (peptide)” gave a Bmax [6] of 951000 AFU, a Bmax [7] of 270000 AFU and a Bmax [8] of 114000 AFU. For the same molecule, the Kd [9] was under 100 nM, the Kd [10] was 30 nM and the Kd [11] was 78 nM. For the same molecule, the Kd [12] was 74 nM and the Kd [13] was 34 nM.

Work on “CA9Ab-680 (anti-human CAIX monoclonal antibody, Clone 303123, R&D systems, conjugated to VivoTag-S 680)” yielded a fold decrease of probe fluorescence in the tumour after blocking with unlabeled CAIX mAb [14] of 1.7 times.

Molecule “Compound 10: Ac-PEGO-Cys(S-[2,3-bis(palmitoyl)oxy-(R)-propyl])-Gly-DSer-PEGO-NH2 (peptide)” has a fold of enhancement of luminescence at 1 µg/mL vs SAA at 10 µg/mL [15] of 5.2 fold, a fold of enhancement of luminescence vs SAA at 1 µg/mL [15] of 14 fold and a Ki [16] of 24 nM. It also gave a Ki [1] of under 100 nM, a Ki [3] of 91 nM and a Ki [4] of 25 nM.

With {Ac-PEGO-Dhc(Pam)2}-GSQNLASLEE-NH2 (reading uncertain) the “fold of enhancement of luminescence at 1 µg/mL vs SAA at 10 µg/mL” value [15] was 4.8 fold and the “fold of enhancement of luminescence vs SAA at 1 µg/mL” value [15] was 13 fold.

With SRFDEDDLE-NH2 (not fully specified (some residues, N-terminus)) the “fold of enhancement of luminescence at 1 µg/mL vs SAA at 10 µg/mL” value [15] was 4.2 fold and the “fold of enhancement of luminescence vs SAA at 1 µg/mL” value [15] was 11 fold.
